Data reported in patent US20240344138A1, “TARGETED THERAPIES IN CANCER” (Feng Biosciences, Inc, priority 2021, published 2024).

Key:
[1] = tested on: metastatic colorectal cancer patients; test: Retrospective analysis of anti-angiogenic therapy (bevacizumab) in metastatic colorectal cancer by TME phenotype; type: in vivo, human; details: A and IS patients
Method: The analysis includes 60 colorectal cancer tumor samples.
To test if TME phenotypes correlate with clinical outcomes when patients are treated with an angiogenesis inhibitor, tumor stroma RNA gene signatures are analyzed from archival tissues collected from 60 colorectal cancer patients (30 left-sided, 30 right-sided) using an ANN classifier such as the TME Panel-1 classifier. The correlation between each TME phenotype is tested against clinical outcome data. In A and IS patients, the use of bevacizumab confers gains in comparison to patients classified to IA and ID TME phenotypes: in A and IS patients median PFS and OS shifts to 15 months and 39 months, respectively. Progression-free survival and OS data in IA and ID patients are consistent with historical values. Overall, the A and IS TME phenotypes correlate specifically with improved clinical outcomes with angiogenesis inhibitors and has a predictive effect with respect to PFS.

[2] = tested on: stage III or IV of ovarian cancer; details: ovarian cancer stage III or IV after initial surgery; bevacizumab added to carboplatin and paclitaxel versus without; cited from earlier work
[3] = tested on: advanced colorectal cancers metastatic to liver (mCRC); details: 3L+ mCRC metastatic to liver; cited from earlier work
mCRC = details: phase II single arm study; cited from earlier work
[4] = tested on: advanced solid tumors in colorectal, triple-negative breast cancer, gastric, and ovarian cancers; test: Phase 2 open-label basket study of navicixizumab monotherapy or with paclitaxel or irinotecan, retrospective analysis by TME phenotype; type: in vivo, human; details: combined A and IS groups
Method: A retrospective analysis of a signal-finding Phase 2 clinical trial is conducted. Patient samples from thirty patients in a phase 2, multicenter, open-label basket study of navicixizumab monotherapy or in combination with the chemotherapeutics paclitaxel or irinotecan in patients with advanced solid tumors in colorectal, triple-negative breast cancer, gastric, and ovarian cancers. Patients in the combined A and IS groups that received navicixizumab monotherapy have an ORR greater than 40%. Patients in the combined A and IS groups that receive navicixizumab and chemotherapy have an ORR greater than 50%.

[5] = tested on: platinum-resistant or platinum-sensitive recurrent triple negative breast cancer; test: Clinical trial of PARP inhibitor, immune checkpoint inhibitor and navicixizumab, ORR by TME phenotype; type: in vivo, human
Method: A clinical trial is run to determine whether the triple negative breast cancer (TNBC) tumor microenvironment phenotypes correlate to clinical responses when patients are treated with a PARP inhibitor, an immune checkpoint inhibitor, and Navicixizumab after recurrence on platinum-based chemotherapy. The analysis includes samples from two different cohorts (one consisting of platinum-sensitive patients and one consisting of platinum-resistant patients). 40 patients from each cohort are randomized to 2 different treatment arms (20 patients in each arm). Patients are randomized to receive either (i) a PARP inhibitor and an immune checkpoint inhibitor or (ii) a PARP inhibitor, an immune checkpoint inhibitor and Navicixizumab. RNA gene signatures are analyzed from tumor samples acquired before the treatments and TME phenotypes are determined. Patients are followed for clinical response.
TNBC patients are randomized to receiving a regimen of PARP inhibitor (olaparib, rucaparib, niraparib, etc.) plus an immune checkpoint inhibitor (anti-PD-(L)1—i.e., an inhibitor to PD-1 or PD-L1) therapy, or a regimen of PARP inhibitor/immune checkpoint inhibitor/Navicixizumab. The combination of PARP inhibitor/immune checkpoint inhibitor/Navicixizumab increases overall response rate in patients with TNBC compared to the regimen of PARP inhibitor/immune checkpoint inhibitor alone in both the platinum-sensitive and platinum-resistant cohorts as shown in TABLE 37. […] Eighty (80) total patients are enrolled, 20 in each of the treatment groups across the two cohorts with equal representation across the 4 stromal phenotypes (5 in each phenotype per treatment group). The correlation between each TME phenotype is tested against clinical outcome data. In immune active (IA), immune suppressed (IS), and angiogenic (A) patients the use of the regimen of PARPi/immune checkpoint inhibitor/Navicixizumab confers benefit in comparison to patients classified to immune desert (ID) TME phenotype classes as shown in the TABLE 38.

[6] = tested on: colorectal cancer in dMMR or MSI-H status patients; test: Clinical trial of bavituximab and an anti-PD-1 checkpoint inhibitor in dMMR or MSI-H colorectal cancer, outcome by TME phenotype; type: in vivo, human
Method: A clinical trial is run to determine whether colorectal cancer TME phenotypes correlate to clinical responses when patients with dMMR or MSI-H status are treated with a combination of a checkpoint inhibitor and bavituximab. The analysis includes 40 colorectal cancer tumor samples.
An anti-PD-1 checkpoint inhibitor is known to increase PFS and OS in dMMR or MSI-H status patients with advanced colorectal cancer (CRC), compared to chemotherapy. CRC patients with dMMR or MSI-H have the option of anti-PD-(L)1 after advancement on appropriate front-line therapy. Patients are classified according to an ANN method such as the TME Panel-1 classifier. […] RNA gene signatures are analyzed from biopsy samples prior to treatment with anti-PD-1. The TME phenotypes are correlated with ORR and with 20-week PFS. […] 40 patients are enrolled, 10 in each of the 4 TME phenotypes. The correlation between each tumor TME phenotype is tested against clinical outcome data. In IA or IS patients the use of bavituximab and anti-PD-(L)1 confers gains in comparison to patients classified to angiogenic (A), and immune desert (ID) TME phenotypes as shown in TABLE 18.

melanoma = test: Phase 2 trial of adjuvant bavituximab and radiation after neoadjuvant immune checkpoint inhibitor, outcome by TME phenotype; type: in vivo, human
Method: A phase 2 clinical trial is run to determine whether melanoma tumor microenvironment phenotypes correlate to clinical responses when patients are treated with adjuvant Bavituximab and radiation following neoadjuvant immune checkpoint inhibitor treatment and surgical resection of stage 2b lymph nodes. The analysis includes samples from 20 patients. RNA gene signatures are analyzed from tumor samples acquired as surgical resections and TME phenotypes are determined. Patients are followed for ORR.
Melanoma patients receive a course of neoadjuvant immune checkpoint inhibitor (anti-PD-(L)1—i.e., an inhibitor to PD-1 or PD-L1) therapy and their stage 2b lymph nodes are resected. Radiation and Bavituximab are given as adjuvant therapy. The TME phenotypes from resected tumor samples are correlated to ORR. […] (20) patients are enrolled, with equal representation across the 4 stromal phenotypes (5 in each phenotype). The correlation between each TME phenotype is tested against clinical outcome data. In biomarker positive patients, represented by immune active (IA) and immune suppressed (IS) phenotypes, the use of the regimen of Bavituximab/radiation confers benefit in comparison to patients classified as biomarker negative, comprised of angiogenic (A) and immune desert (ID) TME phenotype classes, as shown in the TABLE 33.

## bevacizumab
[1]
  median OS: 39 months
  median PFS: 15 months
[2]
  Progression-free survival: 18 months

## carboplatin and paclitaxel
[2]
  Progression-free survival: 13 months

## trifluoridine/tipiracil
[3]
  median OS (mOS): ~7 months
  median PFS (mPFS): ~2 months

## ramucirumab plus FOLFIRI: anti-angiogenic ramucirumab plus the chemotherapeutic FOLFIRI
mCRC
  ORR: 58%
  OS: 20.4 mos
  PFS: 11.5 months

## CNC(=O)c1cc(Oc2ccc(NC(=O)Nc3ccc(Cl)c(C(F)(F)F)c3)c(F)c2)ccn1 [regorafenib]
[3]
  median OS (mOS): ~7 months
  median PFS (mPFS): ~2 months

B1: navicixizumab (antibody, chains of the INN, looked up, V domains shown)
VH: QVQLVQSGAEVKKPGASVKISCKASGYSFTAYYIHWVKQAPGQGLEWIGYISNYNRATNYNQKFKGRVTFTTDTSTSTAYMELRSLRSDDTAVYYCARDYDYDVGMDYWGQGTLVTVSS
VL: DIVMTQSPDSLAVSLGERATISCRASESVDNYGISFMKWFQQKPGQPPKLLIYAASNQGSGVPDRFSGSGSGTDFTLTISSLQAEDVAVYYCQQSKEVPWTFGGGTKVEIK
VH2: QVQLVQSGAEVKKPGASVKVSCKASGYTFTNYWMHWVRQAPGQGLEWMGDINPSNGRTSYKEKFKRRVTLSVDKSSSTAYMELSSLRSEDTAVYFCTIHYDDKYYPLMDYWGQGTLVTVSS
VL2: DIVMTQSPDSLAVSLGERATISCRASESVDNYGISFMKWFQQKPGQPPKLLIYAASNQGSGVPDRFSGSGSGTDFTLTISSLQAEDVAVYYCQQSKEVPWTFGGGTKVEIK
notes: anti-VEGF/anti-DLL4 bispecific antibody
[4]
  ORR: greater than 40%

B2: PARPi/immune checkpoint inhibitor/Navicixumab (antibody, chains of the INN, looked up, V domains shown)
VH: QVQLVQSGAEVKKPGASVKISCKASGYSFTAYYIHWVKQAPGQGLEWIGYISNYNRATNYNQKFKGRVTFTTDTSTSTAYMELRSLRSDDTAVYYCARDYDYDVGMDYWGQGTLVTVSS
VL: DIVMTQSPDSLAVSLGERATISCRASESVDNYGISFMKWFQQKPGQPPKLLIYAASNQGSGVPDRFSGSGSGTDFTLTISSLQAEDVAVYYCQQSKEVPWTFGGGTKVEIK
VH2: QVQLVQSGAEVKKPGASVKVSCKASGYTFTNYWMHWVRQAPGQGLEWMGDINPSNGRTSYKEKFKRRVTLSVDKSSSTAYMELSSLRSEDTAVYFCTIHYDDKYYPLMDYWGQGTLVTVSS
VL2: DIVMTQSPDSLAVSLGERATISCRASESVDNYGISFMKWFQQKPGQPPKLLIYAASNQGSGVPDRFSGSGSGTDFTLTISSLQAEDVAVYYCQQSKEVPWTFGGGTKVEIK
modifications: with PARP inhibitor and checkpoint inhibitor
[5]; Platinum-resistant cohort, TME phenotype A (n = 5)
  Overall response rate (ORR): 40
[5]; Platinum-resistant cohort, TME phenotype IA (n = 5)
  Overall response rate (ORR): 60
[5]; Platinum-resistant cohort, TME phenotype ID (n = 5)
  Overall response rate (ORR): 0
[5]; Platinum-resistant cohort, TME phenotype IS (n = 5)
  Overall response rate (ORR): 80
[5]; Platinum-sensitive cohort, TME phenotype A (n = 5)
  Overall response rate (ORR): 100
[5]; Platinum-sensitive cohort, TME phenotype IA (n = 5)
  Overall response rate (ORR): 80
[5]; Platinum-sensitive cohort, TME phenotype ID (n = 5)
  Overall response rate (ORR): 60
[5]; Platinum-sensitive cohort, TME phenotype IS (n = 5)
  Overall response rate (ORR): 80

B3: bavituximab and an anti-PD-1 checkpoint inhibitor: phosphotidylserine-targeting antibody bavituximab in combination with anti-PD-1 (antibody, chains of the INN, looked up, V domains shown)
VH: EVQLQQSGPELEKPGASVKLSCKASGYSFTGYNMNWVKQSHGKSLEWIGHIDPYYGDTSYNQKFRGKATLTVDKSSSTAYMQLKSLTSEDSAVYYCVKGGYYGHWYFDVWGAGTTVTVSS
VL: DIQMTQSPSSLSASLGERVSLTCRASQDIGSSLNWLQQGPDGTIKRLIYATSSLDSGVPKRFSGSRSGSDYSLTISSLESEDFVDYYCLQYVSSPPTFGAGTKLELK
modifications: plus anti-PD-1 checkpoint inhibitor
[6]; A (n = 10)
  ORR (%): 0%
  PFS % at 20 weeks: 0%
[6]; IA (n = 10)
  ORR (%): 90%
  PFS % at 20 weeks: 100%
[6]; ID (n = 10)
  ORR (%): 0%
  PFS % at 20 weeks: 0%
[6]; IS (n = 10)
  ORR (%): 90%
  PFS % at 20 weeks: 100%

B4: Bavituximab plus radiation (antibody, chains of the INN, looked up, V domains shown)
VH: EVQLQQSGPELEKPGASVKLSCKASGYSFTGYNMNWVKQSHGKSLEWIGHIDPYYGDTSYNQKFRGKATLTVDKSSSTAYMQLKSLTSEDSAVYYCVKGGYYGHWYFDVWGAGTTVTVSS
VL: DIQMTQSPSSLSASLGERVSLTCRASQDIGSSLNWLQQGPDGTIKRLIYATSSLDSGVPKRFSGSRSGSDYSLTISSLESEDFVDYYCLQYVSSPPTFGAGTKLELK
modifications: plus radiation
melanoma; Biomarker Negative (n = 10)
  Overall response rate (ORR): 60%
melanoma; Biomarker Positive (n = 10)
  Overall response rate (ORR): 90%
melanoma; TME phenotype A (n = 5)
  Overall response rate (ORR): 60%
melanoma; TME phenotype IA (n = 5)
  Overall response rate (ORR): 80%
melanoma; TME phenotype ID (n = 5)
  Overall response rate (ORR): 60%
melanoma; TME phenotype IS (n = 5)
  Overall response rate (ORR): 100%
